Drawing on patent US20220096548A1, this text covers inhibition of IL-6 signaling (SEAP production by HEK-Blue IL-6 reporter cells, 2 ng/ml human IL-6) for four molecules.

One test concerns the target human IL-6 (human) (UniProt P05231). The test can be described thus: cell-based or functional assay.
Test [1] concerns the target IL-6R expressed on HEK-Blue IL-6 reporter cells (UniProt P08887). Nature of the test: cell-based or functional assay.
Chain of UniProt P08887 (P08887 20-468 limits assumed): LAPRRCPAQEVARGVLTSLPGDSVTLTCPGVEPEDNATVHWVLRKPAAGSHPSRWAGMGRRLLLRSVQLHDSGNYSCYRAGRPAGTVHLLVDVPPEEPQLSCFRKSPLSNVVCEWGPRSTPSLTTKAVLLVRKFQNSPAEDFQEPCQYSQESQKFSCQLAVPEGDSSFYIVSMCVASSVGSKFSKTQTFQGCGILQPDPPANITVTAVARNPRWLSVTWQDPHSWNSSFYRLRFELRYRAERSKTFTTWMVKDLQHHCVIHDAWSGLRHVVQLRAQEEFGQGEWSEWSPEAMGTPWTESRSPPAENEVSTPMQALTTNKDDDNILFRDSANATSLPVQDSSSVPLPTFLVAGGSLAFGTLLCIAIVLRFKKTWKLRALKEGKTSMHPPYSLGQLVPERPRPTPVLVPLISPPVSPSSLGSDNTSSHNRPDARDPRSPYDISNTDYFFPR

Chain of UniProt P05231 (P05231 30-212 limits assumed): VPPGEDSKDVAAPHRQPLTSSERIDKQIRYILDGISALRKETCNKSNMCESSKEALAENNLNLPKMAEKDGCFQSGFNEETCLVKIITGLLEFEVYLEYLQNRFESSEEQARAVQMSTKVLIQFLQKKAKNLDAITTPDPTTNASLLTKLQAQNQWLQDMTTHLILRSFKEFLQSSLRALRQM

B1: scFv antibody derived from reference Antibody 3 (binding to IL-6), fused with an Fc fragment of human IgG1 (Fc fusion, not shown: a dimerising Fc or GST)
scFv: QIVLIQSPAIMSASPGEKVTMTCSASSSVSYMYWYQQKPGSSPRLLIYDTSNLASGVPVRFSGSGSGTSYSLTISRMEAEDAATYYCQQWSGYPYTFGGGTKLEIKGGGGSGGGGSGGGGSEVQLVESGGKLLKPGGSLKLSCAASGFTFSSFAMSWFRQSPEKRLEWVAEISSGGSYTYYPDTVTGRFTISRDNAKNTLYLEMSSLRSEDTAMYYCARGLWGYYALDYWGQGTSVTVSS
Consider B1, for which the inhibition of IL-6 signaling (SEAP production by HEK-Blue IL-6 reporter cells, 2 ng/ml human IL-6) in the test with human IL-6 (human) was less than 60%.

B2: scFv antibody derived from reference Antibody 2 (binding to IL-6), fused with an Fc fragment of human IgG1 (Fc fusion, not shown: a dimerising Fc or GST)
scFv: EIVLTQSPATLSLSPGERATLSCSASISVSYMYWYQQKPGQAPRLLIYDMSNLASGIPARFSGSGSGTDFTLTISSLEPEDFAVYYCMQWSGYPYTFGGGTKVEIKGGGGSGGGGSGGGGSEVQLVESGGGLVQPGGSLRLSCAASGFTFSPFAMSWVRQAPGKGLEWVAKISPGGSWTYYSDTVTGRFTISRDNAKNSLYLQMNSLRAEDTAVYYCARQLWGYYALDIWGQGTTVTVSS
In the test with human IL-6 (human), B2 showed an inhibition of IL-6 signaling (SEAP production by HEK-Blue IL-6 reporter cells, 2 ng/ml human IL-6) of 100%.

B3: scFv antibody derived from reference Antibody 4 (binding to IL-6R), fused with an Fc fragment of human IgG1 (Fc fusion, not shown: a dimerising Fc or GST)
scFv: QVQLQESGPGLVRPSQTLSLTCTVSGYSITSDHAWSWVRQPPGRGLEWIGYISYSGITTYNPSLKSRVTMLRDTSKNQFSLRLSSVTAADTAVYYCARSLARTTAMDYWGQGSLVTVSSGGGGSGGRASGGGGSGGGGSDIQMTQSPSSLSASVGDRVTITCRASQDISSYLNWYQQKPGKAPKLLIYYTSRLHSGVPSRFSGSGSGTDFTFTISSLQPEDIATYYCQQGNTLPYTFGQGTKVEIK
With B3, the inhibition of IL-6 signaling (SEAP production by HEK-Blue IL-6 reporter cells, 2 ng/ml human IL-6) in test [1] was less than 60%.

B4: scFv antibody derived from reference Antibody 1 (binding to IL-6R), fused with an Fc fragment of human IgG1 (Fc fusion, not shown: a dimerising Fc or GST)
scFv: DIQMTQSPSSVSASVGDRVTITCRASQGISSWLAWYQQKPGKAPKLLIYGASSLESGVPSRFSGSGSGTDFTLTISSLQPEDFASYYCQQANSFPYTFGQGTKLEIKGGGGSGGGGSGGGGSEVQLVESGGGLVQPGRSLRLSCAASRFTFDDYAMHWVRQAPGKGLEWVSGISWNSGRIGYADSVKGRFTISRDNAENSLFLQMNGLRAEDTALYYCAKGRDSFDIWGQGTMVTVSS
In test [1], B4 came in with an inhibition of IL-6 signaling (SEAP production by HEK-Blue IL-6 reporter cells, 2 ng/ml human IL-6) of 100%.
